This note sets out measurements from PMC9513805, “A natural transdifferentiation event involving mitosis is empowered by integrating signaling inputs with conserved plasticity factors”.

Data set [1] addresses T1, SOX-2;HMG-POP-1-FLAG (Caenorhabditis elegans;Caenorhabditis …, UniProt Q21305;Q10666 1-283;181-281, |). The data set can be described thus: EMSA; co-incubation; upper co-binding band, supershift series with anti-HA and/or anti-FLAG; 20 mM Tris-HCl pH 8.0, 100 mM NaCl, 100 ug/mL BSA, 1 mM EDTA, 1 mM DTT, 0.1% NP-40; 20 min on ice (supershift 30 min at room temperature), 200 ng Cy5 probe; 6%. Conditions: protein: recombinant;recombinant; tags: N-terminal 6xHis, C-terminal HA (pSJ6094);N-terminal 6xHis, C-terminal FLAG (pSJ1107); copies: 1;1; label: Cy5 on forward strand; blunt. Background: A gel shift assay detects complexes by their altered migration in electrophoresis.

Data set [2] deals with T1, SOX-2;HMG-POP-1-FLAG. The data set can be described thus: EMSA supershift; anti-FLAG; 20 mM Tris-HCl pH 8.0, 100 mM NaCl, 100 ug/mL BSA, 1 mM EDTA, 1 mM DTT, 0.1% NP-40; 20 min on ice (supershift 30 min at room temperature), 200 ng Cy5 probe; 6%. Conditions: protein: recombinant;recombinant; tags: N-terminal 6xHis, C-terminal HA (pSJ6094);N-terminal 6xHis, C-terminal FLAG (pSJ1107); copies: 1;1; label: Cy5 on forward strand; blunt.

For a further data set, the target named is SOX-2;HMG-POP-1 (Caenorhabditis elegans;Caenorhabditis …, UniProt Q21305;Q10666 1-283;181-281, |). Nature of the data set: EMSA; SOX-2 125-500 nM added to HMG-POP-1; upper shift, most probably ternary complex; 20 mM Tris-HCl pH 8.0, 100 mM NaCl, 100 ug/mL BSA, 1 mM EDTA, 1 mM DTT, 0.1% NP-40; 20 min on ice (supershift 30 min at room temperature), 200 ng Cy5 probe; 6%. Conditions: protein: recombinant;recombinant; tags: N-terminal 6xHis, C-terminal HA (pSJ6094);N-terminal 6xHis (pSJ769); copies: 1;1; label: Cy5 on forward strand; blunt.
Sequence of SOX-2;HMG-POP-1 (Q21305 whole entry, chain 1 of 2): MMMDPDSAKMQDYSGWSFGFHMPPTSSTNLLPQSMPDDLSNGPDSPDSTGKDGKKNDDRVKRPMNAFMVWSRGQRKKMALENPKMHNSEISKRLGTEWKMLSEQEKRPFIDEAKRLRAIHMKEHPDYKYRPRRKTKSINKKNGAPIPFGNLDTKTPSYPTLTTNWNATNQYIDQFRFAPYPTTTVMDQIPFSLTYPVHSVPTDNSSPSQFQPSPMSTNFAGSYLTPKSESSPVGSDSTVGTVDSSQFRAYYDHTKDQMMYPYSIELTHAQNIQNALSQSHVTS
Sequence of SOX-2;HMG-POP-1 (Q10666 181-281, chain 2 of 2): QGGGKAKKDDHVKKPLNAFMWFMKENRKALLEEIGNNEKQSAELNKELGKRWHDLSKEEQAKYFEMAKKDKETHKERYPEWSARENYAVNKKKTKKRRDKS

T1 sequence (Q21305 whole entry, chain 1 of 2): as the sequence (Q21305 whole entry, chain 1 of 2) above
T1 sequence (Q10666 181-281, chain 2 of 2): as the sequence (Q10666 181-281, chain 2 of 2) above

B1: lim-6 intron 4 probe 2 (dsDNA)
DNA 1: CTGCTACCGTAGTGCTTTGTTGATTTAACACACA
DNA 2: TGTGTGTTAAATCAACAAAGCACTACGGTAGCAG
On to B1, for which the binding result with SOX-2;HMG-POP-1-FLAG [1] is given as “binds”.

B2: lim-6 intron 4 probe 1 (dsDNA)
DNA 1: TACGATTTGCAAACAACAAACATTCCAGACAGAT
DNA 2: ATCTGTCTGGAATGTTTGTTGTTTGCAAATCGTA
As to B2, the binding result with SOX-2;HMG-POP-1-FLAG [2] and with SOX-2;HMG-POP-1 was “binds” throughout.
